Biological target: ADRB2 (Adrenoceptor Beta 2) (human, UniProt P07550 1-413)
Assay: cell-based or functional assay

calcium response on co-stimulation with CXCL12 (200 nM) and formoterol (10 uM) relative to CXCL12 alone, HL-60 cells: ~8 fold
calcium response on co-stimulation with CXCL12 (200 nM) and formoterol (10 uM) relative to CXCL12 alone, U937 cells: ~4 fold
B1: CXCR4 (C-X-C Motif Chemokine Receptor 4) (receptor, human, UniProt P61073 1-352, looked up)
chain: MEGISIYTSDNYTEEMGSGDYDSMKEPCFREENANFNKIFLPTIYSIIFLTGIVGNGLVILVMGYQKKLRSMTDKYRLHLSVADLLFVITLPFWAVDAVANWYFGNFLCKAVHVIYTVNLYSSVLILAFISLDRYLAIVHATNSQRPRKLLAEKVVYVGVWIPALLLTIPDFIFANVSEADDRYICDRFYPNDLWVVVFQFQHIMVGLILPGIVILSCYCIIISKLSHSKGHQKRKALKTTVILILAFFACWLPYYIGISIDSFILLEIIKQGCEFENTVHKWISITEALAFFHCCLNPILYAFLGAKFKTSAQHALTSVSRGSSLKILSKGKRGGHSSVSTESESSSFHSS
